Values of other authors in paper PMC11641302.

How the values were obtained:
Nterm1 [1] = biological target: Nterm1 (UniProt position 2, ----MPLLKFD)
Nterm1 [2] = biological target: Nterm1 (UniProt position 2, ----MPVYMVY)

Substance: malonate semialdehyde decarboxylase (MSAD) (Pseudomonas pavonaceae)
- pKa (Nterm1 [1]): ~9.2

Substance: cis-3-chloroacrylic acid dehalogenase (cis-CaaD) (Coryneform bacterium)
- pKa (Nterm1 [2]): ~9.3
